In series [1] the test system is COc1cccc(CO)c1. Kind of series: purified protein. To be noted: apparent, FAD-reconstituted enzyme, 0.1 M sodium phosphate pH 6.0.
The target of series [2] is T1, rAOx (recombinant alcohol oxidase, A. terreus MTCC6324) (Aspergillus terreus, UniProt I7FDJ2).
T1 construct: gene AOx; full-length ORF 2001 bp, 666 residues; pET28a(+), N- and C-terminal His6 kept; ~74-76 kDa; highly aggregated (~1000 nm)
T1 sequence (I7FDJ2 1-666): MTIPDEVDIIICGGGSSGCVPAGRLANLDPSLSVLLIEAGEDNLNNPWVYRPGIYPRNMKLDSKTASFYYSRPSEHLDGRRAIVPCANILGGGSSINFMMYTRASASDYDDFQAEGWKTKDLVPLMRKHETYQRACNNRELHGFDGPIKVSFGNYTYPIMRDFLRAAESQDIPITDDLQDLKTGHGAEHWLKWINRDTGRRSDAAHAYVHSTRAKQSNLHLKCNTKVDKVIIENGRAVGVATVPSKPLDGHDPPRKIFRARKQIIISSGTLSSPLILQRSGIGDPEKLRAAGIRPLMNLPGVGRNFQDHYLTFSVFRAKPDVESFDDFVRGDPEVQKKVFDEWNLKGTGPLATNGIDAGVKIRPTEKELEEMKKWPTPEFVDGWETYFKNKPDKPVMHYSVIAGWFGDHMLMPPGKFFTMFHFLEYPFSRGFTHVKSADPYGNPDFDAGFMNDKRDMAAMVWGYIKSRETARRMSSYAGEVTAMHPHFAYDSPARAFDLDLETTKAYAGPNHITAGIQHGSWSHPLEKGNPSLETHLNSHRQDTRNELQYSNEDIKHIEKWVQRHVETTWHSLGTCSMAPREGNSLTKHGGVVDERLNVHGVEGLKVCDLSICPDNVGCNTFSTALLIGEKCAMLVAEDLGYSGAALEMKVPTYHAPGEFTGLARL
Nature of the series: FAD fluorescence quenching (ex […] nm, em […] nm) after reconstitution of apoenzyme. The class given is binding. Conditions: refolding of apo-rAOx with 0.08 mM FAD, pH 9.0, 16 °C, ~80 h.

Substrate in series [3]: COc1ccc(CO)cc1OC
Nature of the series: purified protein. The class given is biochemical, Aspergillus terreus. Conditions: apparent, FAD-reconstituted enzyme, 0.1 M sodium phosphate pH 6.0.

Substrate in series [4]: OCc1ccccc1
Kind of series: purified protein. The class given is biochemical, Aspergillus terreus. Conditions: apparent, FAD-reconstituted enzyme, 0.1 M sodium phosphate pH 6.0.

With “rAOx (recombinant alcohol oxidase, A. terreus MTCC6324) (Aspergillus terreus)”, in series [1], the Km is 2.88 mM, the kcat amounted to 106 s⁻¹ and the kcat/Km stood at 36700 M⁻¹ s⁻¹.
Take `Cc1cc2nc3c(=O)[nH]c(=O)nc-3n(C[C@H](O)[C@H](O)[C@H](O)COP(=O)(O)OP(=O)(O)OC[C@H]3O[C@@H](n4cnc5c(N)ncnc54)[C@H](O)[C@@H]3O)c2cc1C` [FAD]: the “FAD fluorescence quenching (ex 443 nm, em 527 nm) after reconstitution of apoenz” value in series [2] is recorded as “lower fluorescence intensity of the holoenzyme relative to that of free FAD inferred efficient incorporation”.

B1: rAOx (recombinant alcohol oxidase, A. terreus MTCC6324) (Aspergillus terreus) (protein)
chain: MTIPDEVDIIICGGGSSGCVPAGRLANLDPSLSVLLIEAGEDNLNNPWVYRPGIYPRNMKLDSKTASFYYSRPSEHLDGRRAIVPCANILGGGSSINFMMYTRASASDYDDFQAEGWKTKDLVPLMRKHETYQRACNNRELHGFDGPIKVSFGNYTYPIMRDFLRAAESQDIPITDDLQDLKTGHGAEHWLKWINRDTGRRSDAAHAYVHSTRAKQSNLHLKCNTKVDKVIIENGRAVGVATVPSKPLDGHDPPRKIFRARKQIIISSGTLSSPLILQRSGIGDPEKLRAAGIRPLMNLPGVGRNFQDHYLTFSVFRAKPDVESFDDFVRGDPEVQKKVFDEWNLKGTGPLATNGIDAGVKIRPTEKELEEMKKWPTPEFVDGWETYFKNKPDKPVMHYSVIAGWFGDHMLMPPGKFFTMFHFLEYPFSRGFTHVKSADPYGNPDFDAGFMNDKRDMAAMVWGYIKSRETARRMSSYAGEVTAMHPHFAYDSPARAFDLDLETTKAYAGPNHITAGIQHGSWSHPLEKGNPSLETHLNSHRQDTRNELQYSNEDIKHIEKWVQRHVETTWHSLGTCSMAPREGNSLTKHGGVVDERLNVHGVEGLKVCDLSICPDNVGCNTFSTALLIGEKCAMLVAEDLGYSGAALEMKVPTYHAPGEFTGLARL
notes: full-length ORF 2001 bp, 666 residues; pET28a(+), N- and C-terminal His6 kept; ~74-76 kDa; highly aggregated (~1000 nm)
Consider B1, for which, in series [3], the Km came out at 4.91 mM, the kcat is 115 s⁻¹ and the kcat/Km is 23500 M⁻¹ s⁻¹. In addition, in series [4], the Km is 10.80 mM, the catalytic constant (kcat) is 2.16 s⁻¹ and the kcat/Km amounted to 200 M⁻¹ s⁻¹.

Source of the values: PMC3994049, “Molecular Characterization and Expression of a Novel Alcohol Oxidase from Aspergillus terreus MTCC6324” (PLoS ONE, 2014).
